{"source": "IntAct's records for PubMed 18055455", "parents": {"B1": {"name": "Mothers against decapentaplegic homolog 3 (Rattus norvegicus (Rat)), P84025 (parent)", "chain": "MSSILPFTPPIVKRLLGWKKGEQNGQEEKWCEKAVKSLVKKLKKTGQLDELEKAITTQNVNTKCITIPRSLDGRLQVSHRKGLPHVIYCRLWRWPDLHSHHELRAMELCEFAFNMKKDEVCVNPYHYQRVETPVLPPVLVPRHTEIPAEFPPLDDYSHSIPENTNFPAGIEPQSNIPETPPPGYLSEDGETSDHQMNHSMDAGSPNLSPNPMSPAHNNLDLQPVTYCEPAFWCSISYYELNQRVGETFHASQPSMTVDGFTDPSNSERFCLGLLSNVNRNAAVELTRRHIGRGVRLYYIGGEVFAECLSDSAIFVQSPNCNQRYGWHPATVCKIPPGCNLKIFNNQEFAALLAQSVNQGFEAVYQLTRMCTIRMSFVKGWGAEYRRQTVTSTPCWIELHLNGPLQWLDKVLTQMGSPSIRCSSVS"}}, "data": [{"variants_of": "B1", "details": "with ncap_sars N", "values": [{"variant": "S422A;S423A;S425A", "effect of a mutation on the interaction": "with no effect"}, {"variant": "S423D;S425D", "effect of a mutation on the interaction": "with no effect"}]}]}
